Laboratory results: article PMC5913134, “The IL-33-PIN1-IRAK-M axis is critical for type 2 immunity in IL-33-induced allergic airway inflammation” (Nature Communications, 2018)

Legend:
[1] = tested on: PIN1-IRAK-M interaction; experiment: Co-immunoprecipitation of PIN1 and IRAK-M; assay type: binding; conditions: for PIN1 interaction (CO-IP), IRAK-M constructs: HEK293 cells, after IL-33 treatment
Protocol: Fig. 2 IL-33 induces IRAK-M phosphorylation and binding to PIN1. a GST PIN1 pulldown assay with DC2.4 cell extracts either non-treated or treated with IL-33 (100 ng/ml) or LPS (100ng/ml) for 1 h. […] The cells were washed with fresh medium and treated with 100 ng/ml IL-33 for the indicated times prior to IRAK-M immunoprecipitation. d DC2.4 cells stably expressing IRAK-M were treated with IL-33 and at the indicated time points were subjected to CO-IP using anti-PIN1 antibody and blotted for IRAK-M. e HEK293 cells were transfected with different IRAK-M constructs expressing the N’ terminal domain (aa1-220), the middle portion of the protein (aa220-440) or the C’ terminal domain (aa 440-630), and then treated with IL-33, followed by CO-IP for PIN1. f DC2.4 cells stably expressing IRAK-M were treated with IL-33 and subjected to GST or GST-PIN1 pull-down.
Cells from one 10-cm dish were homogenized in lysis buffer containing 150 mM NaCl, 1% NP-40, 0.5% deoxycholate, 0.1% SDS, 50 mM Tris-HCl (pH 7.7), 1 mM phenylmethylsulfonyl fluoride (PMSF), 1 mM dithiothreitol, and protease inhibitors. Clarified supernatants were incubated with pre incubated immobilized beads rProtein A agarose beads (RepliGen) premixed with PIN1, GFP or IRAK-M antibody or, as a control, IgG overnight at 4 °C. The beads were washed extensively with lysis buffer before elution in SDS sample buffer.

[2] = tested on: IRAK-M; experiment: IRAK-M protein stability, cycloheximide chase; assay type: cell-based; conditions: for IRAK-M half-life: cycloheximide chase
Protocol: Fig. 4 PIN1 increases IRAK-M protein stabilization. a After IRAK-M and GFP were coexpressed in WT and PIN1 KO MEFs for 24 h, cells were split equally into 5 dishes. 24 h later cells were treated with cyclohexamide and harvested to monitor IRAK-M, GFP and PIN1 levels at the time points indicated. b Quantification of 3 independent experiments as in a. c WT MEFs stably expressing the TET on inducible short hairpin for PIN1 (shPin1) or pLKO as a control, were expressed with IRAK-M, followed by induction with Doxycycline for 18 h prior to the cyclohexamide chase. d Quantification of 3 independent experiments as in c. e BMDCs from WT or PIN1 KO mice were treated with IL-33 and the levels of IRAK-M were monitored at different time points after induction. f Quantification of 3 independent experiments as in e. g PIN1 KO MEFs were expressed with IRAK-M alone or in combination with PIN1 or its mutants W34A or K63A for 24 h, followed by the cyclohexamide chase to assay IRAK-M stability. h Quantification of 3 independent experiments as in g. i IRAK-M or its different mutants; S110A, S110E and P111A were expressed in WT MEFs, followed by the cyclohexamide chase to assay IRAK-M stability. j Quantification of 3 independent experiments as in i. k IRAK-M or its different mutants were stably expressed in DC2.4 cells, followed by the cyclohexamide chase to monitor IRAK-M stability. l Quantification of 3 independent experiments as in k. The data were analyzed by a Student’s two-tailed t test and the values are reported as mean ± standard errors of the means (SEM). *- statistical significance (P < 0.05), **- significance (P < 0.01)

[3] = tested on: asthmatic patients; experiment: Segmental allergen (Derp1) challenge in asthmatic patients; assay type: in vivo, human
Excerpt: Fig. 7 IRAK-M expression is elevated in asthmatic human samples after Derp1 segmental allergic challenge. a Representative H&E staining and PAS staining of lung biopsies before and after Derp1 segmental challenge, as well as BALF and brush cytospins before and after treatment stained with Giemsa (n = 4). b Cytospin slides of brushing, total BALF cells, BALF CD15 + and CD205 + cells samples were immune stained for IRAK-M. c Quantification of IRAK-M expression in total BALF cells, BALF CD15 + and CD205 + cells samples as in b using Velocity program. d Total BALF cells were immune stained for PIN1 and pS71PIN1 and quantified using Velocity program e. f RNA was extracted from BALF cellular contents and analyzed for the relative expression of Il6, Csf3, Cxcl2 and Ccl5 by qRT-PCR. The data were analyzed by a Student’s two-tailed t test and the values are reported as mean ± standard errors of the means (SEM). *- statistical significance (P < 0.05), **- significance (P < 0.01). Scale bar = 50 µm
For human subject study, non-smokers with a history of mild asthma with an FEV1 greater than 70% of predicted, using only intermittent beta-agonists for treatment, who were between the ages of 18 and 55 were recruited to undergo segmental allergen challenge via bronchoscopy. Participants were selected on the basis of both a positive methacholine PC20 < 8 mg/mL and a positive skin prick test to Dermatophagoides pternyssinus (DerP1). A positive intradermal that yielded a reaction at or below the concentration threshold of 0.1 AU/mL following the methods set forth in Parulekar et al., was also required, although only the DerP1 antigen was used.
After recoding baseline vitals, PO2, FEV1, PEFR, appropriate anesthetic medication was administered. Then, a fiberoptic bronchoscope with bronchoalveolar lavage (BAL) was performed by sequential instillation and removal of 5 aliquots of 50 mL normal saline in the lingula. Brushings and biopsies were taken after the BAL. The bronchoscope was then re-wedged on the contra lateral side (right middle lobe) in a readily identifiable sub-segment. A safety dose (100 × the minimum dose that caused reaction during the intradermal) of 5 mL of allergen in a prefilled syringe was instilled followed by 5 mL of air and the wedge was maintained for 5 minutes. Subject’s safety parameters were assessed after administration of the sub-threshold allergen dose. If the investigator determined the subject had well tolerated the safety dose, full dose of allergen (1000 × the minimum dose that caused reaction during the intradermal) in a pre-filled syringe was administered followed by 5 ml of air and the wedge was maintained for 5 min. Antigen lot to lot consistency was maintained between the participants intradermal skin test and segmental challenge. Participants were monitored for safety until 2 h after the procedure. After allergen challenge, if the subject developed systemic allergic reaction such as diffuse urticaria, angioedema, stridor, hypotension, syncope or any other serious adverse event, subject would be dropped from the study and only be followed up for safety reasons. Participants were not be allowed to leave for home until their condition was stable as assessed by the study physician.
Pre-bronchoscopy and bronchoscopy eligibility procedures were followed as detailed above prior to 2nd bronchoscopy. Specimens taken were BAL first, followed by brushings, and finally biopsies. These were taken where the segmental allergen challenge was placed (right middle lobe). Drug and post-procedure follow up and monitoring were followed as detailed above.

B1: S110A: IRAK-M mutant, Ser110 substituted to Ala (protein)
chain: MAGNCGARGALSAHTLLFDLPPALLGELCAVLDSCDGALGWRGLAERLSSSWLDVRHIEKYVDQGKSGTRELLWSWAQKNKTIGDLLQVLQEMGHRRAIHLITNYGAVLAPSEKSYQEGGFPNILFKETANVTVDNVLIPEHNEKGILLKSSISFQNIIEGTRNFHKDFLIGEGEIFEVYRVEIQNLTYAVKLFKQEKKMQCKKHWKRFLSELEVLLLFHHPNILELAAYFTETEKFCLIYPYMRNGTLFDRLQCVGDTAPLPWHIRIGILIGISKAIHYLHNVQPCSVICGSISSANILLDDQFQPKLTDFAMAHFRSHLEHQSCTINMTSSSSKHLWYMPEEYIRQGKLSIKTDVYSFGIVIMEVLTGCRVVLDDPKHIQLRDLLRELMEKRGLDSCLSFLDKKVPPCPRNFSAKLFCLAGRCAATRAKLRPSMDEVLNTLESTQASLYFAEDPPTSLKSFRCPSPLFLENVPSIPVEDDESQNNNLLPSDEGLRIDRMTQKTPFECSQSEVMFLSLDKKPESKRNEEACNMPSSSCEESWFPKYIVPSQDLRPYKVNIDPSSEAPGHSCRSRPVESSCSSKFSWDEYEQYKKE
With B1 as the molecule, how does the “PIN1 interaction (CO-IP), IRAK-M constructs” value [1] read?
Its value is “abolished the PIN1-IRAK-M interaction”.

What about the “decrease of IRAK-M protein stability” value ([2]; mutant IRAK-M, WT MEFs, reproduced in DC2.4 cells) of the same molecule?
Its value is ~ 50%.

B2: IRAK-M: Interleukin receptor associated kinase M (protein, UniProt Q8K4B2 1-609, looked up)
Interleukin-1 …: MAGRCGARGALSPQLLLFDLPPALLGELCGILDSCDGPLGWRGLAERLSNSWLDVRHIEKYVNQGKSGTRELLWSWAQKNKTIGDLLEVLQDMGHQRAIHLIINYGVSWTPSVQTHHELPFPSFPPEVKHACRENDPGPLEPANVTVDNVLVPEHNEKGTLQKTPISFQSILEGTKHFHKDFLIGEGEIFEVYRVDIRNQAYAVKLFKQEKKMQLKKHWKRFLSELEVLLLFRHPHILELAAYFTETEKLCLVYPYMSNGTLFDRLQCTNGTTPLSWHVRISVLIGIAKAIQYLHNTQPCAVICGNVSSANILLDDQLQPKLTDFAAAHFRPNLEQQSSTINMTGGGRKHLWYMPEEYIRQGRLSVKTDVYSFGIVIMEVLTGCKVVLDDPKHVQLRDLLMELMEKRGLDSCLSFLDRKIPPCPRNFSAKLFSLAGRCVATKAKLRPTMDEVLSSLESTQPSLYFAEDPPTSLKSFRCPSPLFLDNVPSIPVEDDENQNNHSVPPKEVLGTDRVTQKTPFECSQSEVTFLGLDRNRGNRGSEADCNVPSSSHEECWSPELVAPSQDLSPTVISLGSSWEVPGHSYGSKPMEKRCSSGLFCSEHEQSKKQ
Which “PIN1 interaction (CO-IP), IRAK-M mutants” value ([1]; stably expressing DC2.4 cells, with/without IL-33) does the source give for B2 here?
The value was “evident only after IL-33 stimulation”.

What about the IRAK-M half-life ([2]; PIN1 KO MEFs) of the same molecule?
Its IRAK-M half-life is less than 3 h.

What about the IRAK-M half-life ([2]; WT MEFs) of the same molecule?
Its IRAK-M half-life is ~ 6 h.

And the “reduction of IRAK-M half-life” value ([2]; inducible PIN1 knock down (KD), MEFs)?
The value was “more than 50%”.

B3: Derp1: segmental allergen of Dermatophagoides pteronyssinus (protein, UniProt P08176 99-320, looked up)
Peptidase 1: TNACSINGNAPAEIDLRQMRTVTPIRMQGGCGSCWAFSGVAATESAYLAYRNQSLDLAEQELVDCASQHGCHGDTIPRGIEYIQHNGVVQESYYRYVAREQSCRRPNAQRFGISNYCQIYPPNVNKIREALAQTHSAIAVIIGIKDLDAFRHYDGRTIIQRDNGYQPNYHAVNIVGYSNAQGVDYWIVRNSWDTNWGDNGYGYFAANIDLMMIEEYPYVVIL
For B3, which “immunological reaction (granulocyte infiltration, tissue remodeling)” value ([3]; asthmatic patients, segmental Derp1, n = 4) is on record?
The value was “massive immunological reaction”.

What about the “IRAK-M expression in bronchial epithelial cells” value ([3]; biopsies, before and after Derp1 challenge) of the same molecule?
The value was “elevated”.

And the “IRAK-M protein expression in lung brush samples” value ([3]; brush cytospins, after Derp1 challenge)?
Its value is “greatly elevated”.

What about the “IRAK-M expression in CD15+ and CD205+ BALF cells” value ([3]; sorted eosinophils (CD15+) and dendritic/monocytes (CD205+), after Derp1) of the same molecule?
The value was “highly elevated”.

And the PIN1 protein expression ([3]; total BALF cytospins, Derp1)?
Its PIN1 protein expression is “did not seem to change”.

What about the “pS71 PIN1 phosphorylation” value ([3]; total BALF cytospins, Derp1) of the same molecule?
Its value is “decrease in pS71 phosphorylation”.

And the “IRAK-M expression in total BALF cells” value ([3]; total BALF, after Derp1 challenge)?
The value was “highly elevated”.

B4: IRAK-M N-terminal domain: N-terminal (aa 1-220) of IRAK-M (protein, UniProt Q8K4B2 1-220, looked up, fragment)
chain: MAGRCGARGALSPQLLLFDLPPALLGELCGILDSCDGPLGWRGLAERLSNSWLDVRHIEKYVNQGKSGTRELLWSWAQKNKTIGDLLEVLQDMGHQRAIHLIINYGVSWTPSVQTHHELPFPSFPPEVKHACRENDPGPLEPANVTVDNVLVPEHNEKGTLQKTPISFQSILEGTKHFHKDFLIGEGEIFEVYRVDIRNQAYAVKLFKQEKKMQLKKHWK
How did the “PIN1 interaction (CO-IP), IRAK-M constructs” value [1] turn out when B4 was run?
Its value is “mainly evident”.

B5: PIN1: peptidyl-prolyl cis-trans isomerase PIN1 (protein, UniProt Q9QUR7 1-165, looked up)
Peptidyl-prolyl cis-trans …: MADEEKLPPGWEKRMSRSSGRVYYFNHITNASQWERPSGGSTVGGSSKNGQGEPAKVRCSHLLVKHSQSRRPSSWRQEKITRSKEEALELINGYIQKIKSGEEDFESLASQFSDCSSAKARGDLGPFSRGQMQKPFEDASFALRTGEMSGPVFTDSGIHIILRTE
How did the “increase in IRAK-M half-life” value ([2]; PIN1-deficient MEFs (text PIN1 KD, Fig. 4g legend PIN1 KO) co-expressing IRAK-M with PIN1 or mutant) turn out when B5 was run?
The value was “more than 50%”.
